Columns and labels:
[1] = test system: TGF-β activated p15 promoter; test: p15-lux luciferase reporter in MEF primary cultures from wild type and emilin1 -/- mice; format: cell-based, mouse; settings: FIG. 3A, 3B
Excerpt: MEF primary cultures were transfected with plasmid p15-lux (p15-luciferase) (Li et al., 1995) driving transcription of the luciferase marker gene under control of the p15^INK4B gene promoter. Since the p15 promoter is activated by TGF-β (i.e. p15 is a TGF-β target gene), the presence of the growth factor induces higher luciferase levels, which can be measured with a luminometer.

pro TGF-β1 = test: CAGA12-lux luciferase reporter in HEK293T cells co-transfected with pro TGF-β1 vector; format: cell-based, human; settings: for Effect on luciferase expression induced by pro TGF-β1: CAGA12-lux, co-transfection with pro TGF-β1 vector, FIG. 2B, 2C
Excerpt: • The construct for emilin 1 expression was engineered in pCS2 vector (Rupp R. A. et al., 1994, Genes Dev 8, 1311-1323) (for a physical map of the vector, see the site faculty.washington.edu/rtmoon/pcs2+.html) as described (Zanetti M. et al., 2004, Mol Cell Biol 24, 638-650); the vector used for proTGF-β expression in MEF and HEK293T cells is pCDNA3.1 (Invitrogen). Vectors containing the coding sequence for human pro TGF-β are described in Young and Murphy-Ullrich, 2004 (Young and Murphy-Ullrich, 2004, J Biol Chem 279, 38032-38039). The human pro TGF-β cDNA sequence is reported in the data bank (NP_000660; protein 000651). • The vector for Furin/SPC 1 expression is pCDNA3.1 (Invitrogen) • p15 and CAGA 12 promoter fragments are described in Jonk L. J. et al., 1998, J Biol Chem 273, 21145-21152 […]. • Constructs containing Flag sequences are described in Young G. D and Murphy-Ullrich J E, 2004, J Biol Chem 279, 38032-38039. • Constructs containing the Flag epitope (e.g. Flag-EMI-domain-GPI) were prepared as described in Chubet R G et al. Biotechniques 1996; 20(1):136-141 and detected by anti-Flag antibody (Kodak Inc.). • Constructs containing the GPI anchor were prepared as described in the Manual “Current Protocols in Cell Biology” Howard R. Petty Wayne State University, Detroit, Mich.; Juan S. Bonifacino, Mary Dasso, Joe B. Harford, Jennifer Lippincott-Schwartz, and Kenneth M. Yamada (eds.), Copyright C 2003 John Wiley & Sons, Inc. (GPI-anchor). In the construct Flag-EMI domain-GPI, the Flag sequence was inserted at the N-terminus after the signal peptide, while the GPI-anchor sequence was placed at the COOH-terminal end. • The construct emilin 1-KDEL was obtained by inserting the KDEL coding sequence described by Munro S., and Pelham, H. R., 1987, Cell 48, 899-907 upstream the emilin 1 STOP codon. • The construct containing the type II TGF-β receptor with HA epitope was described in Wrana J. L. et al., 1994, Nature 370, 341-347. • supplier of the drugs used: SP600125 (Calbiochem), SB431542 (Tocris). • Purified recombinant LAP and TGF-β1 proteins were purchased from (R&D Systems)
To verify how emilin or the EMI domain can contrast TGF-β1 activity independently from receptor binding, HEK293T cells were transfected with a construct coding luciferase placed under control of a TGF-β activated promoter: CAGA12-lux (Jonk et al., 1998) alone or in combination with a emilin1 expression vector (500 ng) as shown in FIG. 2B. After transfection, cells were treated (black bar) or not treated (white bar) with 5 ng/ml recombinant TGF-1 (lanes 1 and 2). Column bars from 3 to 6 report luciferase expression values in experiments with cells co-transfected with the expression vector for emilin1 (or EMI-domain or emilin1ΔEMI) alone (white bars) or in combination with the vector encoding pro TGF-β1 (black bars). Values show the mean±st. dev.
As further validation of the above observations, HEK293T cells were cotransfected with expression plasmids carrying the cDNAs shown in the summary scheme above the figure, along with CAGA12-lux and CMV-lacZ constructs, and luciferase expression levels were measured.

[2] = target: T1, pro TGF-β1 (human TGF-β1 precursor) (human, UniProt P01137 30-390); test: co-immunoprecipitation with anti-Flag antibodies from HEK293T cell extracts, western blot with anti-LAP antibodies
T1 construct: Expressed from pCDNA3.1 in HEK293T cells; also called TGF-β precursor; Flag-proTGF-β1
T1 sequence (P01137 30-390): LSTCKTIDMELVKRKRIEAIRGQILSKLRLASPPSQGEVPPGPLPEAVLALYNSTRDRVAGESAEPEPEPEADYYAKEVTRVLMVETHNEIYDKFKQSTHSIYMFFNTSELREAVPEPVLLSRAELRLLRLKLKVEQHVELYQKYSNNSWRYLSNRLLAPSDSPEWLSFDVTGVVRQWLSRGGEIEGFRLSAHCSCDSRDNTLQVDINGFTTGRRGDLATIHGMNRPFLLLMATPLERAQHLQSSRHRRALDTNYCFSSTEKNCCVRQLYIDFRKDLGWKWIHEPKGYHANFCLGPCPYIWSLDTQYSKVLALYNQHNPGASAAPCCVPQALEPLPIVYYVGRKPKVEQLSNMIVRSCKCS
Description: To verify whether TGF-β or its precursor is the emilin target, HEK293T cells were transfected with a plasmid encoding pro TGF-β1 alone or with an expression plasmid for Flag-EMI domain-GPI. Cell extracts were prepared and subjected to the immunoprecipitation procedure with anti-Flag antibodies, as described in example 2. Immunoprecipitates were subjected to SDS-PAGE and Western blotting (WB) with anti-LAP antibodies.

Row | Molecule | Effect on luciferase expression induced by pro TGF-β1 (pro TGF-β1) | also measured
1 | NC(=O)c1ccc(-c2nc(-c3ccc4c(c3)OCO4)c(-c3ccccn3)[nH]2)cc1 [SB431542] |  | p15-lux transcriptional response in normal versus emilin1 -/- MEF cells after drug treatment [1]: a similar response is measured in normal and mutant cells
2 | emilin 2: emilin family protein, GenBank NP-114437 | antagonize TGF-β activity at the of pro-TGF-β level | 
3 | emilin1ΔEMI: emilin protein lacking the EMI-domain, used as control (protein) ASYPPRGFSLYTGSSGALSPGGPQAQIAPRPASSPAPALGPASSTPRPLARPARPNLSGSSAGSPLSGLGGEGPGESEKVQQLEEQVQSLTKELQGLRGVLQGLSGRLAEDVQRAVETAFNGRQQPADAAARPGVHETLNEIQHQLQLLDTRVSTHDQELGHLNNHHGGSSSSGGSRAPAPASAPPGPSEELLRQLEQRLQESCSVCLAGLDGFRRQQQEDRERLRAMEKLLASVEERQRHLAGLAVGRRPPQECCSPELGRRLAELERRLDVVAGSVTVLSGRRGTELGGAAGQGGHPPGYTSLASRLSRLEDRFNSTLGPSEEQEESWPGAPGGLSHWLPAARGRLEQLGGLLANVSGELGGRLDLLEEQVAGAMQACGQLCSGAPGEQDSQVSEILSALERRVLDSEGQLRLVGSGLHTVEAAGEARQATLEGLQEVVGRLQDRVDAQDETAAEFTLRLNLTAARLGQLEGLLQAHGDEGCGACGGVQEELGRLRDGVERCSCPLLPPRGPGAGPGVGGPSRGPLDGFSVFGGSSGSALQALQGELSEVILSFSSLNDSLNELQTTVEGQGADLADLGATKDRIISEINRLQQEATEHATESEERFRGLEEGQAQAGQCPSLEGRLGRLEGVCERLDTVAGGLQGLREGLSRHVAGLWAGLRETNTTSQMQAALLEKLVGGQAGLGRRLGALNSSLQLLEDRLHQLSLKDLTGPAGEAGPPGPPGLQGPPGPAGPPGSPGKDGQEGPIGPPGPQGEQGVEGAPAAPVPQVAFSAALSLPRSEPGTVPFDRVLLNDGGYYDPETGVFTAPLAGRYLLSAVLTGHRHEKVEAVLSRSNQGVARVDSGGYEPEGLENKPVAESQPSPGTLGVFSLILPLQAGDTVCVDLVMGQLAHSEEPLTIFSGALLYGDPELEHA | showed no effect on pro TGF-β | 
4 | emilin 1-KDEL: emilin 1 with KDEL sequence inserted upstream the STOP codon; retained intracellularly, not secreted (protein) ASYPPRGFSLYTGSSGALSPGGPQAQIAPRPASRHRNWCAYVVTRTVSCVLEDGVETYVKYQPCAWGQPQCPQSIMYRRFLRPRYRVAYKTVTDMEWRCCQGYGGDDCAESPAPALGPASSTPRPLARPARPNLSGSSAGSPLSGLGGEGPGESEKVQQLEEQVQSLTKELQGLRGVLQGLSGRLAEDVQRAVETAFNGRQQPADAAARPGVHETLNEIQHQLQLLDTRVSTHDQELGHLNNHHGGSSSSGGSRAPAPASAPPGPSEELLRQLEQRLQESCSVCLAGLDGFRRQQQEDRERLRAMEKLLASVEERQRHLAGLAVGRRPPQECCSPELGRRLAELERRLDVVAGSVTVLSGRRGTELGGAAGQGGHPPGYTSLASRLSRLEDRFNSTLGPSEEQEESWPGAPGGLSHWLPAARGRLEQLGGLLANVSGELGGRLDLLEEQVAGAMQACGQLCSGAPGEQDSQVSEILSALERRVLDSEGQLRLVGSGLHTVEAAGEARQATLEGLQEVVGRLQDRVDAQDETAAEFTLRLNLTAARLGQLEGLLQAHGDEGCGACGGVQEELGRLRDGVERCSCPLLPPRGPGAGPGVGGPSRGPLDGFSVFGGSSGSALQALQGELSEVILSFSSLNDSLNELQTTVEGQGADLADLGATKDRIISEINRLQQEATEHATESEERFRGLEEGQAQAGQCPSLEGRLGRLEGVCERLDTVAGGLQGLREGLSRHVAGLWAGLRETNTTSQMQAALLEKLVGGQAGLGRRLGALNSSLQLLEDRLHQLSLKDLTGPAGEAGPPGPPGLQGPPGPAGPPGSPGKDGQEGPIGPPGPQGEQGVEGAPAAPVPQVAFSAALSLPRSEPGTVPFDRVLLNDGGYYDPETGVFTAPLAGRYLLSAVLTGHRHEKVEAVLSRSNQGVARVDSGGYEPEGLENKPVAESQPSPGTLGVFSLILPLQAGDTVCVDLVMGQLAHSEEPLTIFSGALLYGDPELEHAKDEL |  | Luciferase expression stimulated by transfected pro TGF-β (pro TGF-β1; CAGA12-lux and CMV-lacZ, FIG. 6C): abolishes its inhibitory action on the effects of pro TGF-β
5 | multimerin 2: emilin family protein produced by endothelial cells, GenBank NP—079032 (protein) QASSTSLSDLQSSRTPGVWKAEAEDTGKDPVGRNWCPYPMSKLVTLLALCKTEKFLIHSQQPCPQGAPDCQKVKVMYRMAHKPVYQVKQKVLTSLAWRCCPGYTGPNCEHHDSMAIPEPADPGDSHQEPQDGPVSFKPGHLAAVINEVEVQQEQQEHLLGDLQNDVHRVADSLPGLWKALPGNLTAAVMEANQTGHEFPDRSLEQVLLPHVDTFLQVHFSPIWRSFNQSLHSLTQAIRNLSLDVEANRQAISRVQDSAVARADFQELGAKFEAKVQENTQRVGQLRQDVEDRLHAQHFTLHRSISELQADVDTKLKRLHKAQEAPGTNGSLVLATPGAGARPEPDSLQARLGQLQRNLSELHMTTARREEELQYTLEDMRATLTRHVDEIKELYSESDETFDQISKVERQVEELQVNHTALRELRVILMEKSLIMEENKEEVERQLLELNLTLQHLQGGHADLIKYVKDCNCQKLYLDLDVIREGQRDATRALEETQVSLDERRQLDGSSLQALQNAVDAVSLAVDAHKAEGERARAATSRLRSQVQALDDEVGALKAAAAEARHEVRQLHSAFAALLEDALRHEAVLAALFGEEVLEEMSEQTPGPLPLSYEQIRVALQDAASGLQEQALGWDELAARVTALEQASEPPRPAEHLEPSHDAGREEAATTALAGLARELQSLSNDVKNVGRCCEAEAGAGAASLNASLHGLHNALFATQRSLEQHQRLFHSLFGNFQGLMEANVSLDLGKLQTMLSRKGKKQQKDLEAPRKRDKKEAEPLVDIRVTGPVPGALGAALWEAGSPVAFYASFSEGTAALQTVKFNTTYINIGSSYFPEHGYFRAPERGVYLFAVSVEFGPGPGTGQLVFGGHHRTPVCTTGQGSGSTATVFAMAELQKGERVWFELTQGSITKRSLSGTAFGGFLMFKT | antagonize TGF-β activity at the of pro-TGF-β level | 
6 | Flag-EMI-domain-GPI (emilin-1 EMI domain tagged with the Flag epitope and bound to a GPI anchor) (other, not shown: small tags and cut ends; large carriers, GPI (glycosylphosphatidylinositol) anchor at the COOH-terminal end, Expressed in transfected HEK293T cells and tested in cell extracts; also called EMI-domain-GPI-anchor; GPI anchored EMI domain) RHRNWCAYVVTRTVSCVLEDGVETYVKYQPCAWGQPQCPQSIMYRRFLRPRYRVAYKTVTDMEWRCCQGYGGDDCAE |  | binding result [2]: binds
